Starred links: 1 amine or outer side, 2 acyl side, 3 side chain; linkers in the order of their positions; H or OH if unused. Groups on a side chain read outwards from the residue. No end group written: not given here. 2‑(S)‑cyano pyrrolidyl = 2-(S)-cyano pyrrolidyl group; γGlu = O=C(O)[C@H](CCC(=O)[*:2])N[*:1]; AEEA = NCCOCCOCC(=O)O
T1: endogenously expressed GLP-1 receptor of thyroid c-cell carcinoma line 6-23 (UniProt P32301 22-463)
T1 sequence (looked up): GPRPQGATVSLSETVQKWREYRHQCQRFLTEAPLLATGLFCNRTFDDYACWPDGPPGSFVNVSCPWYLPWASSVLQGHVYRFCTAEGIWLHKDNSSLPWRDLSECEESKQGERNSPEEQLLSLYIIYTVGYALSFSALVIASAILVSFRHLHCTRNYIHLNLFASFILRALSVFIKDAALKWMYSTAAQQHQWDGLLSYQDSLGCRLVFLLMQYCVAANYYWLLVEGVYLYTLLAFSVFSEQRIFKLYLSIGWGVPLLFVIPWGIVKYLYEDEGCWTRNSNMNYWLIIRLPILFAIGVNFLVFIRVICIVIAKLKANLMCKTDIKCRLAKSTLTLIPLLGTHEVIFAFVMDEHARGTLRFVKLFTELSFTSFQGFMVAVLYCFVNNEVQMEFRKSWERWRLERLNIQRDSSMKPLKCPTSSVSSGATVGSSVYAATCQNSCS


Tests used:
[1] = molecular target: Recombinant DPP-IV; test: cell-based or functional assay
[2] = molecular target: T1, endogenously expressed GLP-1 receptor …; test: cell-based or functional assay

Binder	DPP-IV IC50 [1] [µM]	GLP Cyclase EC50 [2] [µM]
YAEGTFISDYSIAMDKIHQQDFVNWLLAQK (C-terminus extended with Ado-Ado-Lys-N-ε-(2-(S)-cyano pyrrolidyl)) [GIP(1-30)-Ado-Ado-Lys-N-ε-(2-(S)-cyano pyrrolidyl)]	0.114	
YAEGTFISDYSIAMDKIHQQDFVNWLLAQK (C-terminus extended with Ado-Lys-N-ε-(2-(S)-cyano pyrrolidyl)) [GIP(1-30)-Ado-Lys-N-ε-(2-(S)-cyano pyrrolidyl)]	0.098	
HAEGTFTSDVSSYLEGQAAKEFIAWLVKGRG (lisinopril joined at the C-terminus through linker type C9 of FIG. 2) [5547]		0.0004
YAEGTFISDYSIAMDKIHQQDFVNWLLAQK([AEEA-γGlu-2‑(S)‑cyano pyrrolidyl]) [Lys^30 N-ε-(Ado-(γ-L-Glu-2-(S)-cyano pyrrolidyl)) GIP(1-30)]	0.049	

Further lines, results first:

DPP-IV IC50 [1] [µM]	GLP Cyclase EC50 [2] [µM]	Binder
0.064		YAEGTFISDYSIAMDKIHQQDFVNWLLAQK (N-terminus acylated with γ-L-Glu-(2-(S)-cyano pyrrolidyl)-Ado-Ado) [N-(γ-L-Glu-2-(S)-cyano pyrrolidyl)-Ado-Ado) GIP(1-30)]
0.109		YAEGTFISDYSIALDKIHQQDFVNWLLAQK-{AEEA-Lys(N-ε-(2-(S)-cyano pyrrolidyl))} [[Leu^14] GIP(1-30)-Ado-Lys-N-ε-(2-(S)-cyano pyrrolidyl)]
